{
  "source": "patent US7709606B2",
  "about": "“Interacting polypeptide comprising a heptapeptide pattern and a cellular penetration domain” (Ecole Normale Superieure de Lyon, priority 2003, dated 2010)",
  "key": {"[1]": {"tested_on": "HIV-1-LA1", "test": "antiviral test in PHA-P activated PBMC, RT activity", "assay_type": "cell-based", "conditions": "for reduction of HIV-1 replication: PBMC activated with PHA-P; for Percentage inhibition, Mean: HIV-1 LA1, day 7", "experimental": "(§1) These viruses were amplified in vitro with umbilical blood mononuclear cells (UBMC) activated with PHA-P. The cell-free supernatant was centrifuged at […] for 10 minutes to eliminate soluble factors, and the residue was re-suspended in cell culture medium. Virus stocks were titrated using PBMC cells activated with PHA-P and 50% tissue culture infectious doses (TCID50) were calculated using Kärber's formula.\nPBMC cells were pre-treated for 30 minutes by 5 concentrations of each molecule and infected with 75 TCID50 of the HIV-1-LA1 strain. AZT (1.6, 8, 40, 200 and 1000 nM) and indinavir (1.6, 8, 40, 200 and 1000 nM) were used as the control. […] The molecules were maintained throughout culture, and the cellular supernatant was harvested 7 days post infection and stored at −20° C. to measure viral replication by reverse transcriptase activity (RT) assay.\n(§2) HIV replication was analyzed by assaying the RT activity in the supernatants from cell cultures using the RetroSys RT kit (Innovagen). The experiments were carried out 3 times and the results are expressed as the mean of the RT activity±the standard deviation (SD).\nIn a last step, it was examined whether SHPs were actually capable of inhibiting HIV-1 replication. This was carried out in PBMCs activated by PHA-P and in MDMs. […] The effects of different SHPs was thus tested at this time. AZT and indinavir were used as controls."}, "[2]": {"target": "Rev/RRE association (Human immunodeficiency virus type 1 group M subtype B, UniProt P04618)", "conditions": "Rev produced in bacteria, RRE RNA probe", "description": "To this end, gel retard experiments were carried out with a RNA molecule corresponding to the RRE element as the probe. The Rev protein produced in bacteria binds to this RNA and induces a non denaturing polyacrylamide gel migration retardation."}, "[3]": {"tested_on": "Jurkat cells", "test": "intracellular entry, immunofluorescence in Jurkat cells", "assay_type": "cell-based", "conditions": "2 μM for one hour, analyzed 24 h later", "experimental": "Light transmission and fluorescence images are shown for representative cells.\nThe immunofluorescence tests were carried out with a primary anti-FLAG antibody in a dilution of 1:500 incubated for 2 hours and a secondary antibody coupled to the Alexa Fluor 488 fluorophore (Molecular Probes) diluted 1:1000, incubated for one hour.\nTo confirm that SHPs do indeed enter the cell, immunofluorescence analyses were also carried out. Jurkat cells were incubated with 1 μM of SHP for 4 hours and after washing twice, the cells were cultured for 24 hours."}, "[4]": {"tested_on": "HIV-1/Ba-L", "test": "antiviral test in monocyte-derived macrophages (MDM), RT activity", "assay_type": "cell-based", "conditions": "for Percentage inhibition, Mean / ED70 / ED90: MDMs, HIV-1/Ba-L", "experimental": "as §1\nThe MDM cells were pre-treated for 30 minutes in 6 concentrations of different molecules and infected with 30000 TCID50 of the HIV-1/Ba-L strain. AZT (0.8, 4, 20, 100 and 500 nM) and indinavir (0.8, 4, 20, 100 and 500 nM) were used as the control. […] The molecules were maintained for 7 days post infection, and the cellular supernatant was harvested 7, 14 and 21 days post infection and stored at −20° C. to measure viral replication by reverse transcriptase activity (RT) assay.\nas §2"}, "[5]": {"tested_on": "PBMCs (resting and activated lymphocytes)", "test": "penetration into PBMCs and stability in medium, anti-FLAG immunoblot", "assay_type": "cell-based, human", "experimental": "Mononuclear cells were prepared from peripheral blood, either directly (A) or after activation with PHA (phytohemagglutinin) and IL-2 (interleukin 2) (B), then incubated with 2 μM of SHPR-190. At the times indicated after addition of the interacting peptide, an aliquot of supernatant was analyzed by immunoblot using antibodies against FLAG (A, lines 1 to 4; B, lines 1 to 3). The cells were collected and lysed in RIPA buffer. The extract obtained was analyzed by immunoblot as described for the supernatant (A, lines 5 and 6; B, line 4). In portion A, the exposure times were different between lines 5 and 6 (30 s) and lines 1 to 4 (5 s).\nTo evaluate the capacity of SHPs to penetrate into cells, PBMCs were cultivated in medium supplemented with 2 μM of SHPR-190. At different times, an aliquot of supernatant was removed and the cells were collected. After washing several times, the cells were lysed in RIPA buffer and the supernatant as well as that which was extracted was analyzed by immunoblot using an antibody directed against the FLAG eiptope, which is present at the N-terminal end of SHP produced in bacteria."}, "[6]": {"target": "Rev (Human immunodeficiency virus type 1 group M subtype B, UniProt P04618)", "conditions": "HeLa cells", "description": "This type of indicative construct allowed an evaluation of the effect of Rev, which by causing transport towards the cytoplasm of the non spliced RNA, allowed expression of the CAT enzyme.\nThe CAT activity was measured using the CAT ELISA kit (Roche).\nThe SHPR activity was evaluated using the reporter construct pDM128 which included the coding sequence CAT and an RRE motif in an intron. Expression of Rev stimulated expression of CAT allowing an unspliced messenger to be exported to the cytoplasm.\nThese various mutants were tested using a transitory expression system consisting of transfecting HeLa cells of the reporter plasmid having the CAT sequence associated with the RRE in the intronic position with expression vectors for the Rev protein and the SHPR protein. […] The separation between the two values was less than 20%.\nThese vectors were transfected with the reporter plasmid pDM128 and the expression vector Rev as described in the above sections (and in Roisin et al, JBC (2004) 279: 9208). The quantity of CAT protein is expressed as a % of that corresponding to transfection of parental SHPR. A value of more than 100 thus indicates a negative effect on the inhibiting power of SHPR and a lower value indicates an increase in this inhibiting property."}},
  "data": [
    {"molecule": "SHPR-190: SUMO-1-heptapeptide-Tat PTD protein against Rev; heptapeptide Asn Trp Leu Cys Cys Leu Asn (SEQ ID NO: 3) (protein) MSDQEAKPSTEDLGDKKEGEYIKLKVIGQDSSEIHFKVKMTTHLKKLKESYCQRQGVPMNSLRFLFEGQRIADNHTPKELGMEEEDVIEVYQEQTARPPNPKKEIELGGGGSNWLCCLNPGRKKRRQRRRG", "values": [
      {"measurement": "anti-HIV activity, replication of HIV-1-LA1", "setting": "[1]; PBMC activated by PHA-P, 7th day, in words", "result": "reduced replication"},
      {"measurement": "reduction of HIV-1 replication", "setting": "[1]; 1 μM", "result": "80±7", "unit": "%"},
      {"measurement": "reduction of HIV-1 replication", "setting": "[1]; 2 μM", "result": 100, "unit": "%"},
      {"measurement": "ED70", "setting": "[1]; PBMCs, HIV-1-LA1, 7th day", "result": 720, "unit": "nM"},
      {"measurement": "ED90", "setting": "[1]; PBMCs, HIV-1-LA1, 7th day", "result": 927, "unit": "nM"},
      {"measurement": "Percentage inhibition, Mean", "setting": "[1]; PBMCs, Dose 31 (nM)", "result": 0, "unit": "%"},
      {"measurement": "Percentage inhibition, Mean", "setting": "[1]; PBMCs, Dose 62.5 (nM)", "result": 0, "unit": "%"},
      {"measurement": "Percentage inhibition, Mean", "setting": "[1]; PBMCs, Dose 125 (nM)", "result": 0, "unit": "%"},
      {"measurement": "Percentage inhibition, Mean", "setting": "[1]; PBMCs, Dose 250 (nM)", "result": 0, "unit": "%"},
      {"measurement": "Percentage inhibition, Mean", "setting": "[1]; PBMCs, Dose 500 (nM)", "result": 38, "unit": "%"},
      {"measurement": "Percentage inhibition, Mean", "setting": "[1]; PBMCs, Dose 1000 (nM)", "result": 80, "unit": "%"},
      {"measurement": "Percentage inhibition, Mean", "setting": "[1]; PBMCs, Dose 2000 (nM)", "result": 100, "unit": "%"},
      {"measurement": "effect on Rev/RRE association (gel retardation)", "setting": "[2]", "result": "did not inhibit this association"},
      {"measurement": "immunofluorescence with antibody against FLAG", "setting": "[3]", "result": "diffuse fluorescence"},
      {"measurement": "inhibition of HIV replication", "setting": "[4]; MDM, 2 μM on day 14", "result": "92±2", "unit": "%"},
      {"measurement": "anti-HIV activity, HIV-1/Ba-L replication", "setting": "[4]; MDM, in words", "result": "dose-dependent"},
      {"measurement": "Percentage inhibition, Mean", "setting": "[4]; Day 7, dose 62.5 (nM)", "result": 0, "unit": "%"},
      {"measurement": "Percentage inhibition, Mean", "setting": "[4]; Day 7, dose 125 (nM)", "result": 34, "unit": "%"},
      {"measurement": "Percentage inhibition, Mean", "setting": "[4]; Day 7, dose 250 (nM)", "result": 50, "unit": "%"},
      {"measurement": "Percentage inhibition, Mean", "setting": "[4]; Day 7, dose 500 (nM)", "result": 89, "unit": "%"},
      {"measurement": "Percentage inhibition, Mean", "setting": "[4]; Day 7, dose 1000 (nM)", "result": 94, "unit": "%"},
      {"measurement": "Percentage inhibition, Mean", "setting": "[4]; Day 7, dose 2000 (nM)", "result": 99, "unit": "%"},
      {"measurement": "ED70", "setting": "[4]; Day 14", "result": 1040, "unit": "nM"},
      {"measurement": "ED90", "setting": "[4]; Day 14", "result": 1450, "unit": "nM"},
      {"measurement": "Percentage inhibition, Mean", "setting": "[4]; Day 14, dose 62.5 (nM)", "result": 0, "unit": "%"},
      {"measurement": "Percentage inhibition, Mean", "setting": "[4]; Day 14, dose 125 (nM)", "result": 0, "unit": "%"},
      {"measurement": "Percentage inhibition, Mean", "setting": "[4]; Day 14, dose 250 (nM)", "result": 0, "unit": "%"},
      {"measurement": "Percentage inhibition, Mean", "setting": "[4]; Day 14, dose 500 (nM)", "result": 66, "unit": "%"},
      {"measurement": "Percentage inhibition, Mean", "setting": "[4]; Day 14, dose 1000 (nM)", "result": 70, "unit": "%"},
      {"measurement": "Percentage inhibition, Mean", "setting": "[4]; Day 14, dose 2000 (nM)", "result": 92, "unit": "%"},
      {"measurement": "ED70", "setting": "[4]; Day 21", "result": ">2000", "unit": "nM"},
      {"measurement": "ED90", "setting": "[4]; Day 21", "result": ">2000", "unit": "nM"},
      {"measurement": "Percentage inhibition, Mean", "setting": "[4]; Day 21, dose 62.5 (nM)", "result": 0, "unit": "%"},
      {"measurement": "Percentage inhibition, Mean", "setting": "[4]; Day 21, dose 125 (nM)", "result": 0, "unit": "%"},
      {"measurement": "Percentage inhibition, Mean", "setting": "[4]; Day 21, dose 250 (nM)", "result": 0, "unit": "%"},
      {"measurement": "Percentage inhibition, Mean", "setting": "[4]; Day 21, dose 500 (nM)", "result": 28, "unit": "%"},
      {"measurement": "Percentage inhibition, Mean", "setting": "[4]; Day 21, dose 1000 (nM)", "result": 50, "unit": "%"},
      {"measurement": "Percentage inhibition, Mean", "setting": "[4]; Day 21, dose 2000 (nM)", "result": 60, "unit": "%"},
      {"measurement": "stability in the culture medium", "setting": "[5]; 2 μM in PBMC culture supernatant", "result": "stable in the culture medium"},
      {"measurement": "presence inside the cell", "setting": "[5]; 2 μM, resting and activated lymphocytes", "result": "a fraction of the protein was present inside the cell"},
      {"measurement": "intracellular concentration", "setting": "[5]; external concentration of 2 μM, lymphocyte assumed a sphere 12μ in diameter", "result": 15, "unit": "µM"},
      {"measurement": "inhibition of the function of Rev (CAT from pDM128)", "setting": "[6]", "result": "effective inhibitors of the function of Rev"}
    ]}
  ]
}
